Legend:
P. aeruginosa cells = experiment: Oxygen consumption measurement (polarographic), P. aeruginosa; type: cell-based, Pseudomonas aeruginosa; settings: after 30 min; defensins 2 x NPIC, human lactoferrin 20 μM, piericidin A 32 µM; preincubated 15 min at 37 °C; untreated cells 83% ± 2%; means ± SD, three experiments
Experimental: Oxygen consumption by C. albicans and P. aeruginosa cells was determined by polarographically using a biological oxygen monitor (dual digital-model 20; Rank Brothers Ltd., Cambridge, UK) at 25 °C. The apparatus consisted of a twin water-jacketed closed sample chamber, which enabled a control experiment to be conducted concurrently. The cells were grown to mid-log phase in SDB (C. albicans) or TSB (P. aeruginosa), washed twice in Tris buffer, and resuspended in the same buffer. Cell suspensions (approximately 10^7 cells/mL) were preincubated with defensins (2 x NPIC), human lactoferrin (20 μM), or piericidin A (32 μM) for 15 min at 37 °C. Oxygen consumption was recorded at 5-min intervals for a period of 30 min. Three independent experiments were performed, and the data are means ± SD.

C. albicans cells [1] = experiment: Membrane potential monitoring with DiBAC4(3), flow cytometry; type: cell-based, Candida albicans; settings: peptides at NPIC, hLf 5 μM, BM2 0.25 μM; DiBAC4(3) 1 µg/mL
Experimental: The membrane potential-sensitive probe DiBAC4(3) was used to monitor the transmembrane electrical potential of C. albicans cells as previously described with slight modifications. Briefly, cells were harvested from mid-log phase cultures via centrifugation and suspended in Tris buffer. The cell suspension was adjusted to 10^6 cells/mL and then incubated with DiBAC4(3) at a final concentration of 1 µg/mL for 30 min. Fluorescence was measured using a CytoFLEX S flow cytometer (Beckman Coulter) with excitation at 561 nm and emission at 690/50 nm. For each treatment, 5000 events were counted per experiment with an exposure time of 1000 ms. Results were analyzed using CytExpert 2.1 Acquisition software. As positive controls, human lactoferrin and BM2 peptide were used. Three independent experiments were performed and data are expressed as means ± SD.

[2] = tested on: Candida albicans ATCC 10231; experiment: Antimicrobial spread-plate (CFU) killing assay, C. albicans; type: cell-based
Experimental: To determine whether the above microbicidal concentrations exert a permeabilizing effect on fungal and bacterial membranes, the influx of the fluorescent nucleic acid-binding dye propidium iodide (PI) in cells incubated with the peptides was assessed. In cells, dye uptake reflects membrane permeabilization, as PI itself cannot permeate through an intact phospholipid bilayer. […] To select an antimicrobial but non-permeabilizing concentration of each peptide for further assays, we defined as a non-permeabilizing inhibitory concentration (NPIC) the antimicrobial inhibitory concentration (≤10% viable cells) that permeabilized ≤ 10% of cells incubated (90 min at 37 °C) in buffer solution.
Microbial susceptibility to the peptides was determined in a spread-plate assay as described previously. Briefly, cell suspensions (10^6 cells/mL) in Tris buffer (10 mM Tris-HCl, pH 7.4) were incubated for 90 min at 37 °C with 2-fold serial peptide dilutions. Peptide concentrations ranged from 0 to 2 μM. After incubation, the number of viable cells was determined by plating aliquots (100 μL) in duplicate on plates (SDA for C. albicans, TSA for P. aeruginosa, and M17G agarified medium for L. lactis) that had been dried for 30 min at room temperature in a laminar flow hood. Plates were incubated for 24–48 h at 30 °C (C. albicans and L. lactis) or 24 h at 37 °C (P. aeruginosa). Dilutions yielding 50–200 colonies were counted. Cell viability values, expressed as colony-forming units (CFUs), were calculated relative to the incubation without added peptides and represent the means ± standard deviation (SD) from duplicates of three independent experiments. For inhibition assays, unless otherwise noted, cell suspensions were preincubated (15 min at 37 °C) with the appropriate inhibitor prior to the addition of peptides, but the inhibitor was present throughout the incubation period with the peptide (90 min at 37 °C). Other specific experimental conditions are described as appropriate. In some experiments, the concentrations of human lactoferrin against C. albicans (5 μM), P. aeruginosa (1 μM), and L. lactis (0.065 μM) were used in the control assays. In various viability assays, BM2 peptide (0.25 μM), CCCP (50 μM), colistin (4 μg/mL), nystatin (50 μM), oligomycin A (16 μg/mL), piericidin A (32 μM), and TEA (10 mM) were used.

Pma1p H^+-ATPase = settings: Table 2; no reference given
Experimental: A whole-cell proton transport assay was used to evaluate the possible inhibition of the fungal Pma1p H^+-ATPase by defensins.
To measure proton pumping from Pma1p H^+-ATPase activity, a glucose-induced acid extrusion assay was performed as previously described with modifications. Briefly, cultures of C. albicans cells were grown to mid-log phase in SDB medium and washed twice in 100 mM Tris-HCl (pH 8.0). The cells were then resuspended in 50 mM KCl and maintained for 18 h at 4 °C to reduce metabolic activity to a minimum (starvation conditions). To determine external acidification, starved cells (approximately 10^7 cells/mL) were incubated for 15 min at 37 °C in the presence or absence of the defensins (2 x NPIC). Cells incubated with 20 µM human lactoferrin or 0.5 µM BM2 peptide were used as positive controls. The initial pH of the cell suspension was adjusted to approximately pH 6.8 with HCl, and glucose (final concentration of 2.5 mM) was immediately added to the cell suspension. The pH of the medium was recorded at 5-min intervals for 20 min using a SevenMulti S50-K pH meter (Mettler-Toledo, Greifensee, Switzerland) with a calibrated electrode (InLab 413, Mettler-Toledo) under constant stirring. Each experiment was repeated three times in an independent manner.

C. albicans cells [3] = experiment: Extracellular potassium measurement (K+-efflux, ICP-MS); type: cell-based, Candida albicans; settings: peptides at NPIC / microbicidal concentrations; 10^7 cells/mL, 90 min at 37 °C; steady state compared with maximum intracellular K+ of untreated cells
Experimental: Potassium measurements were performed via inductively coupled plasma mass spectrometry using an Agilent 7700x ICP-MS (Agilent Technologies, Santa Clara, CA, USA). C. albicans cells were cultured in SDB for 16–20 h at 30 °C. The cells were then subcultured in the same media to the mid-logarithmic growth phase and rapidly washed in sterile, deionized, double-distilled water. The cells (10^7 cells/mL) were immediately incubated with the peptides (NPIC) for 90 min at 37 °C. The tubes were centrifuged at 1100× g for 10 min and the supernatants were collected and stored at 4 °C until analysis. The percentage of cytosolic potassium released from cell suspensions treated with nystatin (50 μM) was determined in positive control assays. Total cellular K^+-content (100% value) was measured in the supernatant of cell suspensions previously treated with 0.5% (v/v) HClO4 alone, heated for 1 h at 95 °C, and centrifuged to remove cell debris. Results are expressed as the percentage (means ± SD) of K^+-release relative to the total cellular K^+-content from duplicates of at least three independent assays.

B1: human lactoferrin: Recombinant human apo-lactoferrin (hLf), 691 amino acid γ-core protein that inhibits microbial PM H+-ATPases; control (protein, UniProt P02788 20-710, looked up)
Lactotransferrin: GRRRSVQWCAVSQPEATKCFQWQRNMRKVRGPPVSCIKRDSPIQCIQAIAENRADAVTLDGGFIYEAGLAPYKLRPVAAEVYGTERQPRTHYYAVAVVKKGGSFQLNELQGLKSCHTGLRRTAGWNVPIGTLRPFLNWTGPPEPIEAAVARFFSASCVPGADKGQFPNLCRLCAGTGENKCAFSSQEPYFSYSGAFKCLRDGAGDVAFIRESTVFEDLSDEAERDEYELLCPDNTRKPVDKFKDCHLARVPSHAVVARSVNGKEDAIWNLLRQAQEKFGKDKSPKFQLFGSPSGQKDLLFKDSAIGFSRVPPRIDSGLYLGSGYFTAIQNLRKSEEEVAARRARVVWCAVGEQELRKCNQWSGLSEGSVTCSSASTTEDCIALVLKGEADAMSLDGGYVYTAGKCGLVPVLAENYKSQQSSDPDPNCVDRPVEGYLAVAVVRRSDTSLTWNSVKGKKSCHTAVDRTAGWNIPMGLLFNQTGSCKFDEYFSQSCAPGSDPRSNLCALCIGDEQGENKCVPNSNERYYGYTGAFRCLAENAGDVAFVKDVTVLQNTDGNNNEAWAKDLKLADFALLCLDGKRKPVTEARSCHLAMAPNHAVVSRMDKVERLKQVLLHQQAKFGRNGSDCPDKFCLFQSETKNLLFNDNTECLARLHGKTTYEKYLGPQYVAGITNLKKCSTSPLLEACEFLRK
modifications: apo form
notes: control
O2 consumption of P. aeruginosa (P. aeruginosa cells): 87% ± 2% | transmembrane electrical potential (DiBAC4(3) fluorescence) (C. albicans cells [1]): increase in DiBAC4(3) fluorescence | effect of high extracellular K+ on candidacidal activity ([2]; 50 mM KCl, defensins at NPIC, hLf 5 μM, BM2 0.25 μM, nystatin 50 μM): significantly decreased | non-permeabilizing inhibitory concentration (NPIC), C. albicans ([2]; antimicrobial concentration (≤10% viable cells) that permeabilized ≤10% of cells, 10^6 cells/mL, Tris buffer pH 7.4, 90 min at 37 °C, from Figure 1 data, duplicates of three experiments): 5 µM | effect of piericidin A on candidacidal activity ([2]; cells preincubated 15 min at 37 °C with 32 µM piericidin A, then peptides (NPIC) 90 min): significantly (p < 0.001) inhibited | effect of oligomycin A on candidacidal activity ([2]; preincubated 15 min at 37 °C with 16 μg/mL oligomycin A, peptides at NPIC): significantly reduced | effect of Tok1p inhibition (TEA) on candidacidal activity ([2]; preincubation 15 min at 37 °C with 10 mM TEA+, peptides at NPIC): reduced | Inhibition of H^+-extrusion (yeast) (Pma1p H^+-ATPase): Yes | K^+-efflux pattern in C. albicans (C. albicans cells [3]): partial K^+-efflux

Reference: article PMC11242853, “The Antimicrobial Activity of Human Defensins at Physiological Non-Permeabilizing Concentrations Is Caused by the Inhibition of the Plasma Membrane H^+-ATPases” (International Journal of Molecular Sciences, 2024)
